T1: human CLDN6, endogenously expressed on cancer cell lines (human, UniProt P56747 1-220)
T1 construct: also called Endogenous CLDN6+; CLDN6 on ARK2, OVCA429, UMUC4 cells
T1 sequence: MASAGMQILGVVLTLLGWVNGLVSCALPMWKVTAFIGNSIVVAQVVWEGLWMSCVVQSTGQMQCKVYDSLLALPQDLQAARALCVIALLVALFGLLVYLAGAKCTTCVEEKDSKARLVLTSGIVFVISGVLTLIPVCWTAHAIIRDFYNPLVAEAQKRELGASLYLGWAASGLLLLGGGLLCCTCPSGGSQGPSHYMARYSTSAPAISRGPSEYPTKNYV

T2: CLDN4-GFP expressed on engineered HEK293T cells (human, UniProt O14493 1-209)
T2 construct: whole, on cells; also called HEK293T CLDN4-mGFP; Artificial CLDN4+; not shown: GFP tag
T2 sequence (looked up): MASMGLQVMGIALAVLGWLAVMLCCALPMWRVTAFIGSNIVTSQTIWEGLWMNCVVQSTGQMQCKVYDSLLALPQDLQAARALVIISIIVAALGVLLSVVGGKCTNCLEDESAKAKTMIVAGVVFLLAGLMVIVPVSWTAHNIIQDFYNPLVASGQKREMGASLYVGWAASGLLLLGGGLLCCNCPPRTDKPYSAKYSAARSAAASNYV

T3: CLDN9-GFP expressed on engineered HEK293T cells (human, UniProt O95484 1-217)
T3 construct: whole, on cells; also called HEK293T CLDN9-mGFP; Artificial CLDN9+; not shown: GFP tag
T3 sequence (looked up): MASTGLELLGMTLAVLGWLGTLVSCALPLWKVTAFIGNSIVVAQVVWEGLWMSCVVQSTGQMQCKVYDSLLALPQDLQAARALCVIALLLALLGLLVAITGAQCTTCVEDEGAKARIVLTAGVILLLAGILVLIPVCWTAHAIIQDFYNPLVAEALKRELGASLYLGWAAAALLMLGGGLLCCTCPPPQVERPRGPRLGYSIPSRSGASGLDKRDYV

T4: mouse CLDN6 fused to GFP, expressed on engineered HEK293T cells (mouse, UniProt Q9Z262 1-219)
T4 construct: whole, on cells; also called HEK293T-CLDN6-mGFP Artificial CLDN6+ (mouse); murine CLDN6; not shown: GFP tag
T4 sequence (looked up): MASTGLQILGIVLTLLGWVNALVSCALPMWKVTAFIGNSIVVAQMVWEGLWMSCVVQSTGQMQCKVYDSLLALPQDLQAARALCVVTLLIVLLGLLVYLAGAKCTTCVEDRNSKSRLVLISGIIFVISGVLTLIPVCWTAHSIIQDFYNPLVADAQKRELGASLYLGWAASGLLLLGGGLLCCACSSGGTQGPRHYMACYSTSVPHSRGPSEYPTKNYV


How the values were obtained:
[1] = molecular target: T1, human CLDN6, endogenously expressed on …; assay: FACS dose curve, labelled mAb, ARK2 cells
[2] = molecular target: T1, human CLDN6, endogenously expressed on …; assay: FACS dose curve, labelled mAb, OVCA429 cells
[3] = molecular target: T2, CLDN4-GFP expressed on engineered …; assay: FACS dose curve, labelled mAb, HEK293T CLDN4-mGFP cells
[4] = molecular target: T3, CLDN9-GFP expressed on engineered …; assay: FACS dose curve, labelled mAb, HEK293T CLDN9-mGFP cells
[5] = molecular target: T4, mouse CLDN6 fused to GFP, expressed on …; assay: FACS dose curve, labelled mAb, HEK293T-CLDN6-mGFP (mouse) cells

| EC50 [1] [nM] | EC50 [2] [nM] | EC50 [3] [nM] | EC50 [4] [nM] | EC50 [5] [nM] | Binder |
| --- | --- | --- | --- | --- | --- |
| 1300 | 2290 | 2090 | 2470 |  | AB12 (antibody, V domains shown, Full-length IgG (ExpiCHO)) VH: EVKLMESGGDLVKPGGSLKLSCAASGFTFSSYAMSWVRQTPEKRLEWVASIRSGGTTYYPDSVKGRFTISRDNARNILYLRMSSLRSEDTAIYYCAKVGGNPYPMDYWGQGTSVTVSS VL: DIQMIQSPSSMFASLGDRVSLSCRASQDIGGNLDWYQQKPGGTIKLLIYSTSNLNSGVPSRFSGSGSGSDYSLTITSLESEDFADYYCLQRNAYPLTFGAGTKLELK |
| 363 | 835 | 2240 |  | 2380 | AB11 (antibody, V domains shown, Full-length IgG (ExpiCHO)) VH: DVQLVESGGGLVQPRGSRKLSCAASGFTFSSFGMHWVRQAPEKGLEWVAYISSDSRTIYYADTVKGRFTISRDNPTNTLFLQMTSLRSEDTAMYYCARDYGRTYEAYWGQGTLVTVSA VL: DIVLTQSPASLAVSLGQRATISCRASKSVSTSGYSYIHWYQQKPGQPPKLLIYLASNLESGVPARFSGSGSGTDFTLNIHPVEEEDAATYYCQHSRELPLTFGAGTKLELK |
|  |  | ≥ 5000 |  | ≥ 5000 | AB15 (antibody, V domains shown, Full-length IgG (ExpiCHO)) VH: DVQLVESGGGLVQPRGSRKLSCAASGFTFSSFGMHWVRQAPEKGLEWVAYISSDSRTIYYADTVKGRFTISRDNPTNTLFLQMTSLRSEDTAMYYCARDYGRTYEAYWGQGTLVTVSA VL: NIMMTQSPSSLAVSAGEKVTMSCKSSQSVLFSSNQKNYLAWYQQKPGQSPRLLIYWASTRESGVPDRFTGSGSGTDFTLTISNVQAEDLAVYYCHQYLSSRTFGAGTKLELK |
| 353 | 531 | 2090 | 1940 | 1550 | AB7 (antibody, V domains shown, Full-length IgG (ExpiCHO)) VH: EVQLQQSGPELVKPGASMKISCKASGYSFTGYTMNWVKQSHGKNLEWIGLINPYNGGTNYNQKFKGKATLTVDKSSSTAYMELLSLTSEDSAVYYCARGVYDYDGFTYWGQGTLVTVSA VL: QIVLTQSPAIMSASLGDRVTMTCTASSSVSSSYLHWYQQKPGSSPKLWIYSTSNLASGVPARFSGSGSGTSYSLTISSMEAEDAATYYCHQYHRSPPTFGSGTKLEIK |
| 1140 | 1090 | ≥ 5000 | 2770 | ≥ 5000 | AB8 (antibody, V domains shown, Full-length IgG (ExpiCHO)) VH: QVQLQQSGAELARPGASVKMSCKASGYTFTTYTMHWLKQRPGQGLEWIGYINPRSGYSNYNQKFKDKATLTADKSSNTAYMQLNTLTSEDSKVYYCSRGELGGFAYWGQGTLVTVSA VL: DVVMTQTPLSLPVSLGDQASISCRSSQSLVHSDGNTYLYWYLQKPGQSPKLLIYKVSNRFSGVPDRFSGSGSGTDFTLKISRVEAEDLGVYFCSQSTHVPYTFGGGTKLEIK |
| 765 | 394 | 26 | 2770 | 2220 | AB6 (antibody, V domains shown, Full-length IgG (ExpiCHO)) VH: DVQLQESGPGLVKSSQSLSLTCSVTGYSITSGYYWKWIRQFPGNKLEWMGYISYDGGINYNPSLKNRISITRDTSKNQFFLKLNSVTTEDTAKYYCARFGKGAMDYWGQGTSVTVSS VL: AIVMFQSPSSLVVSAGEKVTMSCKSSQSLLNSRTRKNYLAWYQQKPGQSPKLLIYWASTRESGVPDRFTGSGSGTDFTLTISSVQAEDLAVYYCKQSYYLYTFGGGTKLEIK |

From patent US20220177583A1 (University of California, published 2022)
